Experiment [1] has as its target human FGFR1c/KLB receptor complex on iLite FGF21 Assay Ready Cells (human, UniProt P11362 22-822; Q86Z14 1-1044). Description: cell-based or functional assay. For Mean E max (%): reference of the scale not given here.
For experiment [2], the target named is T1, human beta-Klotho (KLB) (human, UniProt Q86Z14 53-997).
T1 construct: bought protein, used as analyte in the off-rate screening; also called human KLB; β-Klotho
T1 sequence (looked up): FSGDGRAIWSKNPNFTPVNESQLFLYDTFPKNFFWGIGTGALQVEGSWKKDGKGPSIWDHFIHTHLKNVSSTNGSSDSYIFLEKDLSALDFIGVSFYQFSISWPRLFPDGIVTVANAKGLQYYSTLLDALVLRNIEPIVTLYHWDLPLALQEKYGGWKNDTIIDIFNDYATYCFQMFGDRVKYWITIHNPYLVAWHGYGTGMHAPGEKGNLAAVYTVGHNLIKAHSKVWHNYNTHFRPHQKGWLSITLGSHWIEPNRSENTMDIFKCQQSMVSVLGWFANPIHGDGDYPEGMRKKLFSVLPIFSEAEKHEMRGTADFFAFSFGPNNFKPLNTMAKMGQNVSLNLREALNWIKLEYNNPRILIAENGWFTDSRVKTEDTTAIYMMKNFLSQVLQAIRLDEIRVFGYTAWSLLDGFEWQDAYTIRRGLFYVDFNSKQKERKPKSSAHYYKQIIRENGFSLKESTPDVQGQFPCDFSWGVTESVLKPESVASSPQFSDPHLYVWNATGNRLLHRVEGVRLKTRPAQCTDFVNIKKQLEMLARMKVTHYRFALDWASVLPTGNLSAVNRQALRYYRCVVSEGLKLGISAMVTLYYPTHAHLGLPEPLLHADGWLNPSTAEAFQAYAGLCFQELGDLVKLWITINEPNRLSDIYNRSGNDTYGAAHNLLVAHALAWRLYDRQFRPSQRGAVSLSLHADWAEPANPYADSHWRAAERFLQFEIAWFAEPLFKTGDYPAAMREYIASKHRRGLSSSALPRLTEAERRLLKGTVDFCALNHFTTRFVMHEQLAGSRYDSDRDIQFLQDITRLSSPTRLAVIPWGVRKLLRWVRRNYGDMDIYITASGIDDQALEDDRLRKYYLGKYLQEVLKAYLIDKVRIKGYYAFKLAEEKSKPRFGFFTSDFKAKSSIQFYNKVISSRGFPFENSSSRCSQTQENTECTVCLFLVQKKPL
The experiment is described as follows: BLI off-rate screening, mAb captured, KLB analyte.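 Note: Off-rate taken from the dissociation phase, biosensors held in D-PBS with 0.1% BSA over 1800 s, antibody supernatants diluted to 25 µg/mL.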

The target in experiment [3] is T2, human beta-Klotho (KLB) (human, UniProt Q86Z14 53-997).
T2 construct: bought protein; also called human KLB
T2 sequence (looked up): T1 sequence (looked up)
Description: SPR. On the technique in general: In SPR one partner is held on a chip, and binding of the other changes the refractive index at the surface.

Experiment [4] deals with human FGFR1c + KLB receptor complex on HEK293 iLite FGF21 reporter cells (human, UniProt P11362 22-822; Q86Z14 1-1044). Description: cell-based or functional assay.

Residue numbers refer to the chain shown, from its start. Names and notes keep the numbering of the source.

Sequence of human FGFR1c + KLB receptor complex on HEK293 iLite FGF21 reporter cells (P11362 22-822, chain 1 of 2): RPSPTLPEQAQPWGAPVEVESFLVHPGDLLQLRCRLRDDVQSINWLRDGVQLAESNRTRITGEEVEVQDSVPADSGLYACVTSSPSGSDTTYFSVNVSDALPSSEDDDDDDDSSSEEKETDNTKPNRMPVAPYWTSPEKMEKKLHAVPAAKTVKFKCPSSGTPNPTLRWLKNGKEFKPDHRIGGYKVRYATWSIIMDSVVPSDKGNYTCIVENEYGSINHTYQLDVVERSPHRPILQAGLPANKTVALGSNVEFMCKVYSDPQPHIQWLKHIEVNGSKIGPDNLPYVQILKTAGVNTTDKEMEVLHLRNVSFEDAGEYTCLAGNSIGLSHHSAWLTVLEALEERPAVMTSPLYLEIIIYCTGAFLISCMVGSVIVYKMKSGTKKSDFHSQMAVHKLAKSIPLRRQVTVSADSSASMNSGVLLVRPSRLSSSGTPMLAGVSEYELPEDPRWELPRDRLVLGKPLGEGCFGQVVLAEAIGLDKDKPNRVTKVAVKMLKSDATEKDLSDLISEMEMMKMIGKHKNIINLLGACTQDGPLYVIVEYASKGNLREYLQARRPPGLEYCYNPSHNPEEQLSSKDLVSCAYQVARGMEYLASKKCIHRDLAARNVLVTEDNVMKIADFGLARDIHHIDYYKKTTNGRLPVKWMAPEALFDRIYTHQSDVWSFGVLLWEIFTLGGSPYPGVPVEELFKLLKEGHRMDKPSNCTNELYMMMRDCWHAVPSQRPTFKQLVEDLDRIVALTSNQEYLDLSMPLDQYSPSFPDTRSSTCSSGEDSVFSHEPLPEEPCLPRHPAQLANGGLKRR
Sequence of human FGFR1c + KLB receptor complex on HEK293 iLite FGF21 reporter cells (Q86Z14 whole entry, chain 2 of 2): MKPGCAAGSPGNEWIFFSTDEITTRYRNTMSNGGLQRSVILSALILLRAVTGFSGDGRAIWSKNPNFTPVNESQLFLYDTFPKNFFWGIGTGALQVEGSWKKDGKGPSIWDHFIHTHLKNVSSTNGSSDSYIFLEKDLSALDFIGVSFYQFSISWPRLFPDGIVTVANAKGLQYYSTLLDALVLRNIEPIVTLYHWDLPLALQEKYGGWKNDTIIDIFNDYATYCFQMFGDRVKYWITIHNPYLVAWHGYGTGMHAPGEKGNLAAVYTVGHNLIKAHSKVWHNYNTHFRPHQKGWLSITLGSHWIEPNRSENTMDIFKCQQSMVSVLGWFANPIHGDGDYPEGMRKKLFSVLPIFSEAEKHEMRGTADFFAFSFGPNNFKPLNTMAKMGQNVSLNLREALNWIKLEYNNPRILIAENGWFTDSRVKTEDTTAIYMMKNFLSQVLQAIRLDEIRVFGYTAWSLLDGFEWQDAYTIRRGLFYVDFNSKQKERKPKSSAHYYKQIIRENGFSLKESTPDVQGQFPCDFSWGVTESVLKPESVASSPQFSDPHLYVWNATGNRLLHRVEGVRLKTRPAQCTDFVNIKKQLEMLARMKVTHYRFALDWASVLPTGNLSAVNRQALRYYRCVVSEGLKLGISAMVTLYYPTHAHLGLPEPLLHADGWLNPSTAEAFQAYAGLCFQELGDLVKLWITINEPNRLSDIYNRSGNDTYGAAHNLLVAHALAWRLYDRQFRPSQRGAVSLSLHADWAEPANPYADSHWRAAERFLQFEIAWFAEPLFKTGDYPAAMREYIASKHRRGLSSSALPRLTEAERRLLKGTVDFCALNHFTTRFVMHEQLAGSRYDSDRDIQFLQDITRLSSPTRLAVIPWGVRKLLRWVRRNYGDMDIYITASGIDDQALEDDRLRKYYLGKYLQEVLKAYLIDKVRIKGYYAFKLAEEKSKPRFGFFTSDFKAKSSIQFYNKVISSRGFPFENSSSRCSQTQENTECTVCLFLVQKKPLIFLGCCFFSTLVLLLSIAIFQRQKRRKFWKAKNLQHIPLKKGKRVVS
Sequence of human FGFR1c/KLB receptor complex on iLite FGF21 Assay Ready Cells (P11362 22-822, chain 1 of 2): as the sequence (P11362 22-822, chain 1 of 2) above
Sequence of human FGFR1c/KLB receptor complex on iLite FGF21 Assay Ready Cells (Q86Z14 whole entry, chain 2 of 2): as the sequence (Q86Z14 whole entry, chain 2 of 2) above

B1: 16H7 variant with light chain substitution S55F (antibody, V domains shown)
VH: not shown
VL: SYVLTQPPSVSVAPGQTARITCGGNNIGSESVHWYQQKPGQAPVLVVYDDSDRPFGIPERFSGSNSGNTATLTISRVEAGDEADYYCQVWDGNSDHVVFGGGTKLTVLG
As for B1, in experiment [1], the “Mean E max (%)” value turned out to be 97% and the “Mean EC50” value was found to be 0.095 nM. Further, the koff – broadly, a measure of how fast the partners let go of each other – with human beta-Klotho (KLB) [2] stood at 2.4e-05 s⁻¹.

B2: Ab0198 (antibody, IgG4, V domains shown)
VH: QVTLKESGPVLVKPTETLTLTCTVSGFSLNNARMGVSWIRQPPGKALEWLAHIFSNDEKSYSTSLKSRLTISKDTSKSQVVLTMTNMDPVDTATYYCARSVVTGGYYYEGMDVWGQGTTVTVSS
VL: B1 VL with F55S, N93E
notes: IgG4 PE
In the experiment with human beta-Klotho (KLB) [3], B2 came in with an off-rate constant (koff) of 0.000346 s⁻¹. In addition, in experiment [4], the EC50 (usually the concentration at which the effect is half-maximal) is 0.05 nM and the Emax (as a rule, the maximal effect, on the per cent scale that the assay sets) was found to be 2770%.

B3: Ab0182 (antibody, IgG4, V domains shown)
VH: not shown
VL: B1 VL with D50E, F55S
notes: IgG4 PE
B3 displayed a koff with human beta-Klotho (KLB) [3] of 0.000577 s⁻¹. Moreover, in experiment [4], the 50% effective concentration (EC50) came out at 0.02 nM and the Emax stood at 2290%.

B4: 16H7 variant with light chain substitution S55H (antibody, V domains shown)
VH: not shown
VL: B1 VL with F55H
Take B4: in experiment [1], the “Mean E max (%)” value is 111% and the “Mean EC50” value amounted to 0.122 nM. The koff with human beta-Klotho (KLB) [2] stood at 4e-06 s⁻¹.

B5: Ab0188 (antibody, IgG4, V domains shown)
VH: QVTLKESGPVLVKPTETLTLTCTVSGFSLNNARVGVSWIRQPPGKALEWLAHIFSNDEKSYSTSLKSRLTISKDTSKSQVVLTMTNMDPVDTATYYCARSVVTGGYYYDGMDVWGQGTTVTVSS
VL: B1 VL with D49Y, F55S
notes: IgG4 PE
Turning to B5, in the experiment with human beta-Klotho (KLB) [3], the off-rate (koff) was 0.00084 s⁻¹. Moreover, in experiment [4], the EC50 amounted to 0.06 nM and the maximal effect (Emax) came out at 2410%.

B6: Ab0196 (antibody, IgG4, V domains shown)
VH: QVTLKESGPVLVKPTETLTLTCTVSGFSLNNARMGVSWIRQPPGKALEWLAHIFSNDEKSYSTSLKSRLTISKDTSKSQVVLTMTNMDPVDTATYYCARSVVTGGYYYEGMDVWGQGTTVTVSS
VL: B1 VL with D50E, F55S
notes: IgG4 PE
B6 showed a koff with human beta-Klotho (KLB) [3] of 0.00194 s⁻¹. Also, in experiment [4], the half-maximal effective concentration (EC50) is 0.12 nM and the Emax is 2050%.

B7: 16H7 variant with light chain substitution S55V (antibody, V domains shown)
VH: not shown
VL: B1 VL with F55V
For the molecule B7, in experiment [1], the “Mean E max (%)” value came out at 100% and the “Mean EC50” value came out at 0.131 nM. Also, in the experiment with human beta-Klotho (KLB) [2], the koff came out at 4.4e-05 s⁻¹.

B8: Ab0187 (antibody, IgG4, V domains shown)
VH: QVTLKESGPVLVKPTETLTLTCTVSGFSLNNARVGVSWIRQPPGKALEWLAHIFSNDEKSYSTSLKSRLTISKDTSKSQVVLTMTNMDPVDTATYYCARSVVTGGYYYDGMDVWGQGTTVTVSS
VL: B1 VL with N25S, F55S
notes: IgG4 PE
In turn, B8 gave an off-rate (koff) with human beta-Klotho (KLB) [3] of 0.000156 s⁻¹. For the same molecule, in experiment [4], the half-maximal effective concentration (EC50) came out at 0.04 nM and the maximal response (Emax) is 2780%.

B9: 16H7 variant with light chain substitution V98W (antibody, V domains shown)
VH: not shown
VL: B1 VL with F55S, V98W
In the case of B9, in experiment [1], the “Mean E max (%)” value was found to be 99% and the “Mean EC50” value was 0.099 nM. Also, in the experiment with human beta-Klotho (KLB) [2], the koff worked out at 5.6e-05 s⁻¹.

B10: 16H7 variant with light chain substitution V98H (antibody, V domains shown)
VH: not shown
VL: B1 VL with F55S, V98H
Consider B10, for which, in experiment [1], the “Mean E max (%)” value worked out at 103% and the “Mean EC50” value worked out at 0.107 nM. Moreover, the off-rate constant (koff) with human beta-Klotho (KLB) [2] came out at 1.8e-05 s⁻¹.

B11: 16H7 variant with light chain substitution S55T (antibody, V domains shown)
VH: not shown
VL: B1 VL with F55T
B11: in experiment [1], the “Mean E max (%)” value worked out at 100% and the “Mean EC50” value was 0.109 nM. This molecule also showed a koff in the experiment with human beta-Klotho (KLB) [2] of 1.3e-05 s⁻¹.

B12: 16H7 variant with light chain substitution V98Y (antibody, V domains shown)
VH: not shown
VL: B1 VL with F55S, V98Y
As for B12, in experiment [1], the “Mean E max (%)” value amounted to 100% and the “Mean EC50” value was found to be 0.109 nM. This molecule also gave a koff in the experiment with human beta-Klotho (KLB) [2] of 5.9e-05 s⁻¹.

B13: 16H7 variant with light chain substitution S55I (antibody, V domains shown)
VH: not shown
VL: B1 VL with F55I
B13: in experiment [1], the “Mean E max (%)” value turned out to be 110% and the “Mean EC50” value turned out to be 0.133 nM. Also, in the experiment with human beta-Klotho (KLB) [2], the koff amounted to 1.3e-05 s⁻¹.

B14: 16H7 variant with light chain substitution S55R (antibody, V domains shown)
VH: not shown
VL: B1 VL with F55R
Consider B14, for which, in experiment [1], the “Mean E max (%)” value came out at 100% and the “Mean EC50” value was found to be 0.143 nM. This molecule also displayed a koff in the experiment with human beta-Klotho (KLB) [2] of 4.9e-05 s⁻¹.

B15: Ab0189 (antibody, IgG4, V domains shown)
VH: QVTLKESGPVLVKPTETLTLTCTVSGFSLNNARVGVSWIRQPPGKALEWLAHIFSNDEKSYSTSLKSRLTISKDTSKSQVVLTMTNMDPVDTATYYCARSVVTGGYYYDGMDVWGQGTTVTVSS
VL: B1 VL with D50E, F55S
notes: IgG4 PE
For B15, the koff in the experiment with human beta-Klotho (KLB) [3] turned out to be 0.000387 s⁻¹. For the same molecule, in experiment [4], the half-maximal effective concentration (EC50) amounted to 0.06 nM and the maximal response (Emax) was 2760%.

B16: 16H7 variant with light chain substitution V98T (antibody, V domains shown)
VH: not shown
VL: B1 VL with F55S, V98T
For B16, in experiment [1], the “Mean E max (%)” value was determined as 99% and the “Mean EC50” value was determined as 0.088 nM. In the experiment with human beta-Klotho (KLB) [2], this molecule yielded a koff of 3.1e-05 s⁻¹.

B17: 16H7 variant with light chain substitution V98K (antibody, V domains shown)
VH: not shown
VL: B1 VL with F55S, V98K
For B17, in experiment [1], the “Mean E max (%)” value is 106% and the “Mean EC50” value was 0.111 nM. In the experiment with human beta-Klotho (KLB) [2], the koff is 9e-05 s⁻¹.

B18: Ab0197 (antibody, IgG4, V domains shown)
VH: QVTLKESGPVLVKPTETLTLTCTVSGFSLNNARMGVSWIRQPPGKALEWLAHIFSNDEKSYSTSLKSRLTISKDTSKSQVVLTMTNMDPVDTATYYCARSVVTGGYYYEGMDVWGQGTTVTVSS
VL: B1 VL with F55S, D91T
notes: IgG4 PE
In the case of B18, in the experiment with human beta-Klotho (KLB) [3], the off-rate constant (koff) was 0.00167 s⁻¹. Further, in experiment [4], the half-maximal effective concentration (EC50) worked out at 0.08 nM and the Emax was found to be 2000%.

B19: 16H7 variant with light chain substitution S55G (antibody, V domains shown)
VH: not shown
VL: B1 VL with F55G
For the molecule B19, in experiment [1], the “Mean E max (%)” value was 104% and the “Mean EC50” value turned out to be 0.128 nM. Besides, the koff with human beta-Klotho (KLB) [2] worked out at 3.5e-05 s⁻¹.

B20: Ab0195 (antibody, IgG4, V domains shown)
VH: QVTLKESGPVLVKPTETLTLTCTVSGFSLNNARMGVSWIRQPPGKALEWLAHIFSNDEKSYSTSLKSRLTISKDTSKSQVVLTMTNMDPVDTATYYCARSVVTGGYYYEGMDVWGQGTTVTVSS
VL: B1 VL with D49Y, F55S
notes: IgG4 PE
In the experiment with human beta-Klotho (KLB) [3], B20 yielded a koff of 0.00267 s⁻¹. Besides, in experiment [4], the half-maximal effective concentration (EC50) worked out at 0.14 nM and the Emax was 2030%.

B21: 16H7 variant with light chain substitution S55N (antibody, V domains shown)
VH: not shown
VL: B1 VL with F55N
As to B21, in experiment [1], the “Mean E max (%)” value is 111% and the “Mean EC50” value was 0.141 nM. Besides, the koff with human beta-Klotho (KLB) [2] amounted to 1.7e-05 s⁻¹.

B22: 16H7 variant with light chain substitution V98G (antibody, V domains shown)
VH: not shown
VL: B1 VL with F55S, V98G
For the molecule B22, in experiment [1], the “Mean E max (%)” value was found to be 105% and the “Mean EC50” value came to 0.118 nM. The koff with human beta-Klotho (KLB) [2] came out at 1.1e-05 s⁻¹.

B23: 16H7 variant with light chain substitution S55L (antibody, V domains shown)
VH: not shown
VL: B1 VL with F55L
For B23, in experiment [1], the “Mean E max (%)” value is 97% and the “Mean EC50” value was 0.126 nM. Further, the off-rate (koff) with human beta-Klotho (KLB) [2] is 8.4e-05 s⁻¹.

B24: 16H7 variant with light chain substitution V98L (antibody, V domains shown)
VH: not shown
VL: B1 VL with F55S, V98L
As to B24, in experiment [1], the “Mean E max (%)” value amounted to 105% and the “Mean EC50” value stood at 0.121 nM. The same molecule returned a koff with human beta-Klotho (KLB) [2] of 0.00013 s⁻¹.

B25: Ab0190 (antibody, IgG4, V domains shown)
VH: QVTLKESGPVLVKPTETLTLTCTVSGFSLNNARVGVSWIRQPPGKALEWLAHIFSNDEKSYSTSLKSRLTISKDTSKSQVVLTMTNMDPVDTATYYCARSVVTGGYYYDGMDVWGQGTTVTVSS
VL: B1 VL with F55S, D91T
notes: IgG4 PE
The molecule B25 had a koff with human beta-Klotho (KLB) [3] of 0.000195 s⁻¹. In addition, in experiment [4], the EC50 was 0.05 nM and the Emax came out at 2370%.

B26: 16H7 variant with light chain substitution V98A (antibody, V domains shown)
VH: not shown
VL: B1 VL with F55S, V98A
As to B26, in experiment [1], the “Mean E max (%)” value was 99% and the “Mean EC50” value amounted to 0.139 nM. The same molecule returned a koff with human beta-Klotho (KLB) [2] of 4.6e-05 s⁻¹.

B27: Ab0194 (antibody, IgG4, V domains shown)
VH: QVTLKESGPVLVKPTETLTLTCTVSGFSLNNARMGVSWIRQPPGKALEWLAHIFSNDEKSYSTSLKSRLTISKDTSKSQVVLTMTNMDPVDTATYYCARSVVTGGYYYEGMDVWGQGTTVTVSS
VL: B1 VL with N25S, F55S
notes: IgG4 PE
For the molecule B27, the dissociation rate constant (koff) in the experiment with human beta-Klotho (KLB) [3] stood at 0.000402 s⁻¹. In experiment [4], the concentration for a half-maximal effect (EC50) was 0.06 nM and the Emax turned out to be 2550%.

B28: 16H7 variant with light chain substitution S55Y (antibody, V domains shown)
VH: not shown
VL: B1 VL with F55Y
Turning to B28, in experiment [1], the “Mean E max (%)” value was 113% and the “Mean EC50” value was found to be 0.126 nM. Further, the off-rate (koff) with human beta-Klotho (KLB) [2] is 1.8e-05 s⁻¹.

B29: Ab0191 (antibody, IgG4, V domains shown)
VH: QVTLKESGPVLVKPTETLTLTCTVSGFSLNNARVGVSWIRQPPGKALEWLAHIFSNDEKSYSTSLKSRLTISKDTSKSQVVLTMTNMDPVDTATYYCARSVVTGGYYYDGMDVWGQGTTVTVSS
VL: B1 VL with F55S, N93E
notes: IgG4 PE
For B29, the koff with human beta-Klotho (KLB) [3] amounted to 0.000144 s⁻¹. Besides, in experiment [4], the EC50 stood at 0.04 nM and the Emax was 2470%.

B30: 16H7 variant with light chain substitution S55P (antibody, V domains shown)
VH: not shown
VL: B1 VL with F55P
Take B30: in experiment [1], the “Mean E max (%)” value was 99% and the “Mean EC50” value came to 0.109 nM. For the same molecule, the koff with human beta-Klotho (KLB) [2] is 3.2e-05 s⁻¹.

B31: Ab0180 (antibody, IgG4, V domains shown)
VH: not shown
VL: B1 VL with N25S, F55S
notes: IgG4 PE
B31 came in with a koff in the experiment with human beta-Klotho (KLB) [3] of 0.00024 s⁻¹. Besides, in experiment [4], the EC50 is 0.05 nM and the maximal response (Emax) turned out to be 2710%.
